# System: Escherichia coli TOP10
# Assay: shrunken log2 fold change of peptide-encoding DNA abundance (4.5 h post-induction vs induction); higher = less antimicrobial activity (less host growth inhibition)
# Details: time post-induction: 4.5 h; library: site-saturation at positions 5, 18, 19, 20
# 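Further: peptides expressed intracellularly from a pBAD plasmid library in pooled LB shake-flask culture, induced with 0.3% L-arabinose, DNA abundance read by NGS, three biological replicates, DESeq2 with apeglm shrinkage.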
row,Sequence,shrunken log2 fold change
1,RRIRERPPRLPRPRPRPQAWPRP,0.0278
2,RRIRERPPRLPRPRPRPQCSPRP,-0.442
3,RRIRERPPRLPRPRPRPQDDPRP,0.121
4,RRIRERPPRLPRPRPRPQDNPRP,-0.0327
5,RRIRERPPRLPRPRPRPQEGPRP,0.0271
6,RRIRERPPRLPRPRPRPQEQPRP,-0.0202
7,RRIRERPPRLPRPRPRPQERPRP,0.061
8,RRIRERPPRLPRPRPRPQFRPRP,-0.00151
9,RRIRERPPRLPRPRPRPQGRPRP,-0.0137
10,RRIRERPPRLPRPRPRPQKEPRP,-0.0239
11,RRIRERPPRLPRPRPRPQKTPRP,-0.0465
12,RRIRERPPRLPRPRPRPQLMPRP,-0.0865
13,RRIRERPPRLPRPRPRPQMCPRP,0.0746
14,RRIRERPPRLPRPRPRPQMNPRP,-0.276
15,RRIRERPPRLPRPRPRPQMWPRP,-0.0958
16,RRIRERPPRLPRPRPRPQNFPRP,-0.486
17,RRIRERPPRLPRPRPRPQNMPRP,-1.05
18,RRIRERPPRLPRPRPRPQPAPRP,0.171
19,RRIRERPPRLPRPRPRPQPIPRP,0.0322
20,RRIRERPPRLPRPRPRPQPPPRP,0.104
21,RRIRERPPRLPRPRPRPQQLPRP,-0.178
22,RRIRERPPRLPRPRPRPQQWPRP,0.19

row,Sequence,shrunken log2 fold change
1,RRIRERPPRLPRPRPRPQSQPRP,0.0662
2,RRIRERPPRLPRPRPRPQTCPRP,-0.0436
3,RRIRERPPRLPRPRPRPQTLPRP,-0.324
4,RRIRERPPRLPRPRPRPQVWPRP,-0.0702
5,RRIRERPPRLPRPRPRPQYKPRP,-0.675
6,RRIRERPPRLPRPRPRPQYQPRP,-1.12
7,RRIRERPPRLPRPRPRPQYTPRP,-1.16
8,RRIRERPPRLPRPRPRPRCQPRP,-0.0986
9,RRIRERPPRLPRPRPRPRCRPRP,0.113
10,RRIRERPPRLPRPRPRPRERPRP,0.389
11,RRIRERPPRLPRPRPRPRFGPRP,0.152
12,RRIRERPPRLPRPRPRPRFNPRP,-0.453
13,RRIRERPPRLPRPRPRPRGGPRP,0.376
14,RRIRERPPRLPRPRPRPRIKPRP,-0.598
15,RRIRERPPRLPRPRPRPRKVPRP,0.107
16,RRIRERPPRLPRPRPRPRMAPRP,0.2
17,RRIRERPPRLPRPRPRPRMNPRP,0.0757
18,RRIRERPPRLPRPRPRPRMSPRP,-0.254
19,RRIRERPPRLPRPRPRPRNNPRP,-0.441
20,RRIRERPPRLPRPRPRPRPAPRP,0.434
21,RRIRERPPRLPRPRPRPRPGPRP,0.464
22,RRIRERPPRLPRPRPRPRPRPRP,0.723

row,Sequence,shrunken log2 fold change
1,RRIRERPPRLPRPRPRPRQFPRP,-0.174
2,RRIRERPPRLPRPRPRPRRFPRP,0.158
3,RRIRERPPRLPRPRPRPRSHPRP,-0.349
4,RRIRERPPRLPRPRPRPRTCPRP,-0.0174
5,RRIRERPPRLPRPRPRPRTHPRP,-0.574
6,RRIRERPPRLPRPRPRPRWNPRP,-0.0995
7,RRIRERPPRLPRPRPRPRWQPRP,0.245
8,RRIRERPPRLPRPRPRPRYCPRP,-0.516
9,RRIRERPPRLPRPRPRPRYIPRP,-0.208
10,RRIRERPPRLPRPRPRPRYYPRP,-0.206
11,RRIRERPPRLPRPRPRPSAEPRP,0.0172
12,RRIRERPPRLPRPRPRPSALPRP,-0.373
13,RRIRERPPRLPRPRPRPSASPRP,-0.13
14,RRIRERPPRLPRPRPRPSCKPRP,-0.277
15,RRIRERPPRLPRPRPRPSDQPRP,-1.5
16,RRIRERPPRLPRPRPRPSDTPRP,-0.287
17,RRIRERPPRLPRPRPRPSFLPRP,-0.789
18,RRIRERPPRLPRPRPRPSGAPRP,-0.12
19,RRIRERPPRLPRPRPRPSGEPRP,-0.157
20,RRIRERPPRLPRPRPRPSHEPRP,-0.0595
21,RRIRERPPRLPRPRPRPSKVPRP,-0.365
22,RRIRERPPRLPRPRPRPSLDPRP,-0.35

row,Sequence,shrunken log2 fold change
1,RRIRERPPRLPRPRPRPSMNPRP,-0.573
2,RRIRERPPRLPRPRPRPSNCPRP,-0.0637
3,RRIRERPPRLPRPRPRPSNWPRP,-0.296
4,RRIRERPPRLPRPRPRPSPAPRP,-0.0943
5,RRIRERPPRLPRPRPRPSPDPRP,-0.185
6,RRIRERPPRLPRPRPRPSPTPRP,0.0865
7,RRIRERPPRLPRPRPRPSQCPRP,-0.0684
8,RRIRERPPRLPRPRPRPSRWPRP,1.41
9,RRIRERPPRLPRPRPRPSTSPRP,-0.145
10,RRIRERPPRLPRPRPRPSTTPRP,-0.285
11,RRIRERPPRLPRPRPRPSVLPRP,-0.312
12,RRIRERPPRLPRPRPRPSVMPRP,-0.175
13,RRIRERPPRLPRPRPRPSVPPRP,-0.235
14,RRIRERPPRLPRPRPRPSWGPRP,-0.102
15,RRIRERPPRLPRPRPRPSWKPRP,-0.345
16,RRIRERPPRLPRPRPRPSWMPRP,-0.416
17,RRIRERPPRLPRPRPRPSYAPRP,-0.176
18,RRIRERPPRLPRPRPRPTAKPRP,0.0302
19,RRIRERPPRLPRPRPRPTALPRP,-0.415
20,RRIRERPPRLPRPRPRPTANPRP,-0.154
21,RRIRERPPRLPRPRPRPTEMPRP,0.0983
22,RRIRERPPRLPRPRPRPTFKPRP,-0.313

row,Sequence,shrunken log2 fold change
1,RRIRERPPRLPRPRPRPTFQPRP,-0.103
2,RRIRERPPRLPRPRPRPTFYPRP,-0.18
3,RRIRERPPRLPRPRPRPTGMPRP,-0.128
4,RRIRERPPRLPRPRPRPTHTPRP,-0.409
5,RRIRERPPRLPRPRPRPTKFPRP,-0.364
6,RRIRERPPRLPRPRPRPTLEPRP,0.034
7,RRIRERPPRLPRPRPRPTMCPRP,0.292
8,RRIRERPPRLPRPRPRPTMEPRP,-0.116
9,RRIRERPPRLPRPRPRPTMFPRP,-0.724
10,RRIRERPPRLPRPRPRPTMKPRP,-0.0369
11,RRIRERPPRLPRPRPRPTMMPRP,-0.0968
12,RRIRERPPRLPRPRPRPTPCPRP,0.0922
13,RRIRERPPRLPRPRPRPTPIPRP,0.244
14,RRIRERPPRLPRPRPRPTQPPRP,0.254
15,RRIRERPPRLPRPRPRPTRPPRP,0.461
16,RRIRERPPRLPRPRPRPTRTPRP,0.374
17,RRIRERPPRLPRPRPRPTRVPRP,-0.0943
18,RRIRERPPRLPRPRPRPTRYPRP,-0.154
19,RRIRERPPRLPRPRPRPTSIPRP,-0.19
20,RRIRERPPRLPRPRPRPTSSPRP,-0.303
21,RRIRERPPRLPRPRPRPTTAPRP,0.0732

# Reference: the supplement of paper PMC9112550, “Optimization of the antimicrobial peptide Bac7 by deep mutational scanning” (BMC Biology, 2022)
